One block for each molecule: values may come before it. Ends that are not written are not given here. fluorescein = fluorescein label (light-emitting moiety) attached to the peptide
Key:
BB1, BB2, BB3 = experiment: Non-selective radioligand displacement binding, rat cerebral cortex / brain neurons
Protocol: Referring now to FIG. 4, a fluoresceinyl-NMC peptide with the amino aid sequence […]NH2 (SEQ ID NO:4) was tested to determine its affinity for NMC receptor sites. The fluoresceinyl-NMC peptide compound absorbs light maximally at 494 nm and features an emission spectrum centered around 518 nm. […] The IC50 is related to the binding constant Ki by the formula IC50=Ki (1+FL/Kd), where FL is the concentration of the free labeled ligand and Kd is the dissociation constant for the labeled ligand.
(§1) All experimental results were obtained by displacing radiolabeled bombesin from the designated receptor, except for the results obtained for GRP which used radiolabeled GRP. Other receptors used in binding assays include the NMB receptor, the bombesin-receptor subtype 2 (BB2) and the bombesin receptor subtype 3 (BB3). As mentioned above, the biological activities of fluoresceinyl-NMC as well as fluoresceinyl-GRP compounds were determined in non-selective assay by binding to BB1, BB2 and BB3 expressed by rat brain neurons whereas the biological activities of fluoresceinyl-NMB and [Dphe^6, Ala^11, Phe^13, Nle^14]Bbn(6–14) compounds were determined by using recombinant cells expressing the BB1 (NMB receptor) or BB2 and BB3 receptors respectively.
(§2) Determination of IC50 for labeled peptides. […] In order to fully dissolve the peptide, the sample was reconstituted in 20 uL DMSO, vortexing well to ensure that all powder was completely dissolved, and then adding 0.48 mL of double distilled water. The stock solution was aliquoted to avoid repeated freezing and thawing of peptide. Unused aliquots were stored at −20° C. (protected from light) for maximum 24 hr.
Receptor binding was carried out on tissues of rat cortex homogenate for GRP, recombinant cells expressing BB1 (NMB receptor) for NMB, or recombinant cells expressing BB2 and BB3 for [Dphe^6, Ala^11, Phe^13, Nle^14]Bbn(6–14). […]
(§3) Data for native and labeled peptides were analyzed by non-linear curve fitting. […]

[1] = target: bombesin 2 receptor (BB2 or GRP receptor), recombinant cells; experiment: radioligand displacement, recombinant cells expressing BB2
[2] = target: bombesin 3 receptor (BB3 or orphan bombesin receptor), recombinant cells; experiment: radioligand displacement, recombinant cells expressing BB3
Chain of bombesin 3 receptor (BB3 or orphan bombesin receptor), recombinant cells (P32247 whole entry): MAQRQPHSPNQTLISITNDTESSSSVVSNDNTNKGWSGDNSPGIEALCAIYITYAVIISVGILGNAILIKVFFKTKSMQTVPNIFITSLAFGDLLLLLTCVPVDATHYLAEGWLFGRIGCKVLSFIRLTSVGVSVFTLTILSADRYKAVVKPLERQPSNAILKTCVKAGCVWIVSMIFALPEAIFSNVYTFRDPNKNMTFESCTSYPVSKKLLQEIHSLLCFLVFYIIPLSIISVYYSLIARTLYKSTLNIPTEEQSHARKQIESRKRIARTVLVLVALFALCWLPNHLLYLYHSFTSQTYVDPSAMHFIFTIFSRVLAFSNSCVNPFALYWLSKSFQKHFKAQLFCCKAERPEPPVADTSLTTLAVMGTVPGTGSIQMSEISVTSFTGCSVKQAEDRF

BB1 (NMB receptor) = target: T1, BB1 (NMB receptor) (Homo sapiens, UniProt P28336); experiment: Radioligand displacement binding, recombinant cells expressing BB1 (NMB receptor)
T1 construct: expressed in transfected cells
T1 sequence (P28336 whole entry): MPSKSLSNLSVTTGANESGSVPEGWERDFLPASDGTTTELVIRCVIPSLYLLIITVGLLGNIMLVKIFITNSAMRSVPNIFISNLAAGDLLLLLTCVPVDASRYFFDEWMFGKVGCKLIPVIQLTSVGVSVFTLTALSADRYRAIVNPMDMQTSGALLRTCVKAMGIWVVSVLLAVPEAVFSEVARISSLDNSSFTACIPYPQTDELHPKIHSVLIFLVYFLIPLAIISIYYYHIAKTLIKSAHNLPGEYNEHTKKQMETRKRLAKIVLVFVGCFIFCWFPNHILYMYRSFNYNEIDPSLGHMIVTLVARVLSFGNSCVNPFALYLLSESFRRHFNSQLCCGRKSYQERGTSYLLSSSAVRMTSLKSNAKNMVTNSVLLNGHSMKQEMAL
Protocol: as §1
as §2, with “hr. […]” for “hr.”
as §3

[3] = target: BB1, BB2 and BB3 expressed by rat brain neurons; experiment: radioligand displacement (radiolabeled GRP), rat cortex homogenate, non-selective
[4] = target: bombesin 1 receptor (BB1 or NMB receptor), recombinant cells; experiment: radioligand displacement, recombinant cells expressing BB1 (NMB receptor)
[5] = target: BB1, BB2 and BB3 expressed by rat brain neurons; experiment: displacement of radiolabeled bombesin, rat cerebral cortex
[6] = target: BB1, BB2 and BB3 expressed by rat brain neurons; experiment: radioligand displacement (radiolabeled bombesin), rat cerebral cortex, non-selective

- Ki (BB1, BB2, BB3; displacement of radiolabeled bombesin, BB1, BB2, BB3 of rat brain neurons): 3.2 nM
- IC50 (BB1, BB2, BB3; read-out: IC50 (concentration at which 50% of the binding is inhibited), displacement of radiolabeled bombesin, receptors on rat cerebral cortex neurons): 3.2 nM
Molecule: fluoresceinyl-NMC peptide, sequence Gly-Asn-His-Trp-Ala-Val-Gly-His-Leu-Met-NH2 (SEQ ID NO:4), fluorescein at N-terminus (fluorescein-GNHWAVGHLM-NH2; listed as Sus scrofa) [Fluo*-NMC]

- Ki [1]: 0.17 nM
- Ki [2]: 23 nM
Molecule: [Dphe^6, Ala^11, Phe^13, Nle^14]Bbn(6-14) (peptide)

Molecule: CSCC[C@H](NC(=O)[C@H](Cc1ccccc1)NC(=O)[C@H](Cc1cnc[nH]1)NC(=O)CNC(=O)[C@@H](NC(=O)[C@H](C)NC(=O)[C@H](Cc1c[nH]c2ccccc12)NC(=O)[C@H](CC(C)C)NC(=O)[C@H](CC(N)=O)NC(=O)CN)[C@@H](C)O)C(N)=O [NMB]
- Ki (BB1 (NMB receptor)): 0.1 nM

- Ki (BB1, BB2, BB3; displacement of radiolabeled GRP, BB1, BB2, BB3, rat cortex homogenate): 2 nM
Molecule: VPLPAGGGTVLTKMYPRGNHWAVGHLM [GRP]

- Ki [1]: 0.26 nM
- Ki [2]: 86 nM
Molecule: fluoresceinyl-[Dphe^6, Ala^11, Phe^13, Nle^14]Bbn(6-14) (peptide)

- Ki [3]: 32 nM
Molecule: {fluorescein (carboxylic form)}-VPLPAGGGTVLTKMYPRGNHWAVGHLM-NH2 [fluoresceinyl-GRP]

- Ki [4]: 0.1 nM
Molecule: GNLWATGHFM-NH2 [NMB]

- Ki [3]: 2 nM
Molecule: VPLPAGGGTVLTKMYPRGNHWAVGHLM-NH2 [GRP]

- IC50 [5]: 3.2 nM
- Ki [6]: 3.2 nM
Molecule: {fluorescein (carboxylic form)}-GNHWAVGHLM-NH2 [fluoresceinyl-NMC peptide]

- Ki [4]: 7 nM
Molecule: {fluorescein (carboxylic form)}-GNLWATGHFM-NH2 [fluoresceinyl-NMB]
